Results as given in publication PMC12615485, “New dengue virus inhibitors targeting NS3-NS5 interaction identified by in silico screening” (Frontiers in Microbiology, 2025).

Assays:
[1] = biological target: NHS-NS5(270-900): 6His-NS5 RdRp(270-900) labelled with RED-NHS (DENV-2 NGC strain); assay: MST
[2] = biological target: 6His-NS5 RdRp(270-900) of DENV-2 NGC strain (DENV-2 NGC strain); assay: ELISA

Row | Substance | Kd [1] [µM] | IC50 [2] [µM]
1 | 6His-NS3(177-618), helicase portion of NS3 (domain or fragment) | 7.2 | 
2 | NS3(566-585) peptide of DENV-2 |  | 127
